Experimental data published in article PMC6382874, “Succinylation-dependent mitochondrial translocation of PKM2 promotes cell survival in response to nutritional stress” (Cell Death & Disease, 2019).

Target: T1, His-PKM2 (human, UniProt P14618 1-531)
T1 construct: Pyruvate kinase M2 (PKM2), human cDNA cloned into pET28a(+); also called His-tagged-PKM2; source: E. coli BL21, purified (Ni–agarose beads); not shown: His-tag, N-terminal, kept
Assay: pull-down; in vitro binding of His-PKM2 (2.5 μg) and GST-VDAC3, Ni–NTA agarose, western blot with anti-GST or anti-His antibody
Conditions: both partners purified

T1 sequence (P14618 whole entry): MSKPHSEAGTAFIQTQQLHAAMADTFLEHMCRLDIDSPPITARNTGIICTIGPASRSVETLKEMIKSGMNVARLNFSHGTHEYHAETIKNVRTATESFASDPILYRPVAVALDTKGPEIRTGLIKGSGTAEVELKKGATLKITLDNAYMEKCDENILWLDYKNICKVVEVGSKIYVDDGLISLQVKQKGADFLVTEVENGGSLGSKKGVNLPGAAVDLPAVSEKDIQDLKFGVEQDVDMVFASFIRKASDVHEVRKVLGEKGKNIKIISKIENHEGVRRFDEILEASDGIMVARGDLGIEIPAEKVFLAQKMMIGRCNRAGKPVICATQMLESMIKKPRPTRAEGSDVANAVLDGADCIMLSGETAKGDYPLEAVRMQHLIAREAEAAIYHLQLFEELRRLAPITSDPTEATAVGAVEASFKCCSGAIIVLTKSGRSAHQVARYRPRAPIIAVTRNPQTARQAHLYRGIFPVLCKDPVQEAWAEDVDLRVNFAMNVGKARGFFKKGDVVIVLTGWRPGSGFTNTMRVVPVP

- binding result: binds
B1: GST-VDAC3 (natural protein, human, UniProt Q9Y277 1-283, looked up)
chain: MCNTPTYCDLGKAAKDVFNKGYGFGMVKIDLKTKSCSGVEFSTSGHAYTDTGKASGNLETKYKVCNYGLTFTQKWNTDNTLGTEISWENKLAEGLKLTLDTIFVPNTGKKSGKLKASYKRDCFSVGSNVDIDFSGPTIYGWAVLAFEGWLAGYQMSFDTAKSKLSQNNFALGYKAADFQLHTHVNDGTEFGGSIYQKVNEKIETSINLAWTAGSNNTRFGIAAKYMLDCRTSLSAKVNNASLIGLGYTQTLRPGVKLTLSALIDGKNFSAGGHKVGLGFELEA
notes: VDAC3, human cDNA cloned into pGEX-4T-1; also called GST-tagged-VDAC3; source: E. coli BL21, purified (GST agarose beads); the pull-down method also calls it in vitro translated; not shown: GST, N-terminal, kept
